The target of experiment [1] is D2 receptor peptide (D2R peptide) (human). The experiment can be described thus: crystal structure; NCS-1 (1 mM) with 2-fold excess of D2R peptide; 150 mM Tris-HCl pH 8.0, 8% ethylene glycol, 20% PEG 5000, 20 °C; 2.19 Å.
In experiment [2] the target is GRK1 peptide (N terminus of G-protein-coupled receptor kinase 1, residues 1-25). The experiment can be described thus: crystal structure; NCS-1 (1 mM) with 2-fold excess of GRK1 peptide; 0.12 M alcohols, 0.1 M HEPES/MOPS pH 7.5, 30% PEGMME 550 and PEG 20000, 20 °C; 2.30 Å.
GRK1 peptide (N terminus of G-protein-coupled receptor kinase 1, residues 1-25), sequence (Q15835 1-25): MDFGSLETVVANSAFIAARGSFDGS
In experiment [3] the target is D2 receptor peptide (D2R peptide) (human). As to the kind of experiment: ITC; 1 mM Ca2+/NCS-1 in the syringe titrated into 100 uM D2R peptide in the cell, 25 °C, 50 mM Tris-HCl, 50 mM NaCl, 5 mM CaCl2, pH 7.5; fitted to a sequential model and to a two-site nonsequential model with stoichiometry fixed at 1:2 NCS-1:peptide. (In ITC the heat of successive injections is recorded.)

Rattus norvegicus neuronal calcium sensor-1 (NCS-1), full-length, Ca2+-bound, sequence (P62168 whole entry): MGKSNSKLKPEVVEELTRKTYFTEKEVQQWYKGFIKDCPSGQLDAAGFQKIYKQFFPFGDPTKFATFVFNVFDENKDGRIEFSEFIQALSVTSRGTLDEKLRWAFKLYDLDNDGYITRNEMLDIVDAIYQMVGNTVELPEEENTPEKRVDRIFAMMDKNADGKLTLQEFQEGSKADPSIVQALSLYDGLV

By stoichiometry N is commonly meant a count of units in the complex or per binding partner. “Rattus norvegicus neuronal calcium sensor-1 (NCS-1), full-length, Ca2+-bound (from UniProt P62168 1-190) (natural protein)” yielded a stoichiometry N in experiment [1] of 2. In experiment [2], this substance returned a stoichiometry N of 1. Besides, in experiment [3], the Kd, sequential binding model, first value stood at 43 µM; the Kd, sequential binding model, second value came to 58 µM; the dH is -2.06 kcal/mol.
